Reference: the supplement of paper PMC9170038

Tested on: MS2 coat protein
Assay: apparent KD of MS2 coat protein; designed switch direction (-1 OFF switch, 1 ON switch): 1; higher = weaker reporter binding
Procedure, shortened: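 Stalled E. coli RNA polymerase transcribed designed RNA switches on Illumina chips, which were then titrated with SNAP-549-labelled MS2 coat protein, doubling from 0.7 or 1.5 nM to 3 µM. Steps lasted from 0.8–1.5 h at the lowest concentration to 10–20 min at the highest. The apparent KD is each design's median over clusters of curve-fitted normalised fluorescence.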

[1] = Eterna round: R95, input ligand: FMN 200 uM
[2] = Eterna round: R95, input ligand: microRNA oligo, concentration not stated
[3] = Eterna round: R95, input ligand: none
[4] = input ligand: microRNA oligo, concentration not stated

Row | Sequence | apparent KD of MS2 coat protein [1] | apparent KD of MS2 coat protein [2] | apparent KD of MS2 coat protein [3] | apparent KD of MS2 coat protein (input ligand: FMN 200 uM) | apparent KD of MS2 coat protein [4] | apparent KD of MS2 coat protein (input ligand: none)
1 | GUGGUGUAGAUACAGGAUAUGUUGCUCGUAACAUGAGGAUCACCCAUGUAUCUAUGAGAAUAAAUGCAGAAGGGUGCACACCACU [Mat - Same State 2 - Mod of UCT - D74] (puzzle: Same State 2) | 24.7 nM | 467 nM | 639 nM |  |  | 
2 | GUGUUACAUGAGGAUCACCCAUGUUGUUGUAGAUAAGGAUAUAUGGUAACGAGAGAAAUAAUAGAAGGUAUUAGGC [JR_SS1_Sub061] (puzzle: Same State 1) |  | 34.7 nM |  |  |  | 
3 | GUUAAACAUGAGGAUCACCCAUGUCAAUGUAGUCGAGGAUAUGGGUAGCCAUGAGGCGUACUAGAAGGCGAGGAGU [Mat - Same State 1 - Mod of JL - D19] (puzzle: Same State 1) | 118 nM | 69.8 nM | 80.5 nM |  |  | 
4 | GUUACAUGAGGAUCACCCAUGUAUGUGUGGGAGUAAGUGUCUUAGGAUAUCUAGUAGUUAAUUUAAGAGAAGGAAGAUUGUUGU [JMF's solution 55] (Eterna round: R96, puzzle: Same State NG 3) |  |  |  | 145 nM | 81.9 nM | 104 nM
5 | GUUACAUGAGGAUCACCCAUGUAUGUGUGGGAGUAAGUGUCUUAGGAUAUCUAGUAUUUAACUUAAGAGAAGGAAGAUUGUUGU [JMF's solution 63] (Eterna round: R96, puzzle: Same State NG 3) |  |  |  | 142 nM | 95.8 nM | 105 nM
6 | GUUACAUGAGGAUCACCCAUGUAUGUGUGGGAGUAAGUGUCUUAGGAUAUCUAUUAGUUAAAUUAAGAGAAGGAAGAUUGUUGU [JMF's solution 15] (Eterna round: R96, puzzle: Same State NG 3) |  |  |  |  | 91.4 nM | 
7 | GUUACAUGAGGAUCACCCAUGUAUGUGUGGGAGUAAGUGUCUUAGGAUAUCUGUUAUUCAAUUUAAGAGAAGGAAGAUUGUUGU [JMF's solution 38] (Eterna round: R96, puzzle: Same State NG 3) |  |  |  | 97.1 nM | 49.5 nM | 76.5 nM
8 | GUUCCACAUGAGGAUCACCCAUGUCACGAACACGCAGGAUAUUGCCUGAGUUUGGACAGGUAAGAAGGGUGAGAGA [Dibeante] (puzzle: Same State 1) | 64.3 nM | 31.9 nM | 28.9 nM |  |  | 
9 | UAAAUAAAGUAAGGAUAUACAUGAGGAUUUCUCGUAGAAGGUACAAGACAUGAGGAUCACCCAUGUAUCGCUCGAAAGAGCGUA [Mat - Same State NG 1 - JL mod - D22] (Eterna round: R96, puzzle: Same State NG 1) |  |  |  | 126 nM | 67.5 nM | 208 nM
10 | UAAAUAAUGUAAGGAUAUACAUGAGGAAUUCUCGUAGAAGGUACAUGACAUGAGGAUCACCCAUGUAUCGCUCCGUAGAGCGUA [Mat - Same State NG 1 - JL mod - D26] (Eterna round: R96, puzzle: Same State NG 1) |  |  |  | 288 nM | 5.78 nM | 48.8 nM
11 | UAAGUCAUGUAAGGAUAUGCAGCCGAAACGGCUGCAGAAGGUACUAUAAUUACAUGAGGAUCACCCAUGUUAUAAAAUUUAUAU [Mat - Same State NG 1 - JL mod - D77] (Eterna round: R96, puzzle: Same State NG 1) |  |  |  | 22.4 nM | 39 nM | 54.5 nM
12 | UACAAUCUAUCUGAGGAUAUCAUGAAAAAAACAUGAGGAUCACCCAUGUGCAGGAAAACUGCAUAUGAGAAGGCAGAUAGAUUGA [salish99_SS2_r3_005] (Eterna round: R96, puzzle: Same State 2) |  |  |  |  | 517 nM | 
13 | UACAAUCUAUCUGAGGAUAUCAUGAAAAAAACAUGAGGAUCACCCAUGUGCAGGAAAACUGCAUAUGAGAAGGCAGAUAGAUUGA [salish99_SS2_r3_005] (puzzle: Same State 2) | 27.4 nM | 585 nM | 721 nM |  |  | 
14 | UACAAUCUAUCUGAGGAUAUCAUGAAUAAAACAUGAGGAUCACCCAUGUGCAGGAUAACUGCAAAUGAGAAGGCAGAUAGAUUGU [Mat - Same State 2 - Mod - D8] (puzzle: Same State 2) | 13.5 nM | 16 nM | 24.1 nM |  |  | 
15 | UAGAACAAGCUUUUUGCCCGUCUUAUAUAACAUGAGGAUCACCCAUGUAAGGUGAAAGUUAGAGAGUGGAGGUUGAA [JR_SHM208A_Sub048] (puzzle: Sensor for hsa-mir-208a) | 216 nM | 193 nM | 156 nM |  |  | 
16 | UAGAAUCUAUCUCAGGAUAUCAUGUCAAAGACAUGAGGAUCACCCAUGUACCAGGAAACUGGUUAUGAGAAGGGAGAUAGAUUCA [Mat - Same State 2 - Mod - D34] (puzzle: Same State 2) | 124 nM | 98.3 nM | 241 nM |  |  | 
17 | UAGAGAGGAAGCGAGGAUAUCGUGGGAGGGACAUGAGGAUCACCCAUGUAGGAUGUUGAGAGGAACGAGAAGGCGCAGGAAAGUA [JR_SS2_Sub076] (puzzle: Same State 2) | 92.4 nM | 63.5 nM | 91.2 nM |  |  | 
18 | UAGUACAAGCUUUUUGCUUGUCUUAUUUAACAUGAGGAUCACCCAUGUAAGUUGAAAGUUAGAGAGUGCACCUUCAA [JR_SHM208A_Sub052] (Eterna round: R96, puzzle: Sensor for hsa-mir-208a) |  |  |  | 17.2 nM | 17 nM | 21.6 nM
19 | UAGUACAAGCUUUUUGCUUGUCUUAUUUAACAUGAGGAUCACCCAUGUAAGUUGAAAGUUAGAGAGUGCACCUUCAA [JR_SHM208A_Sub052] (puzzle: Sensor for hsa-mir-208a) | 18.7 nM | 18.9 nM | 17.1 nM |  |  | 
20 | UAGUAUCAACGAGGAUAUAAUAUGUUCAAUUUUUUAUAUUGUUUACAUGAGGAUCACCCAUGUUAUUAGAAGGCGUAUGGGAUU [JR_SSNG2_Sub083] (Eterna round: R96, puzzle: Same State NG 2) |  |  |  |  | 47.2 nM | 
21 | UAGUAUUAGCGAGGAUAUCGUAUGUUCAAUUUUUUAUAUUGUUUACAUGAGGAUCACCCAUGUUACGAGAAGGCGCAUGGGAUU [JR_SSNG2_Sub081] (Eterna round: R96, puzzle: Same State NG 2) |  |  |  |  | 371 nM | 
22 | UAGUUUCAACGAGGAUAUAAUAGGUUCUAUUCGUGAUAUUGCGUACAUGAGGAUCACCCAUGUUAUUAGAAGGCGUAUGGGUUU [JR_SSNG2_Sub086] (Eterna round: R96, puzzle: Same State NG 2) |  |  |  | 89.9 nM | 59.8 nM | 77.9 nM
23 | UCAAGCGUUUGGCUCGUUUUAUGUUUUGUACAUGAGGAUCACCCAUGUUUUGUACGAUCCAGUUAGAUGGUAUUUUG [JR_SHM208A_Sub039] (puzzle: Sensor for hsa-mir-208a) | 39.6 nM | 93 nM | 56.8 nM |  |  | 
24 | UCGGGCGUACUUGCUGACAUGAGGAUCACCCAUGUAAAUGGGAAGGAUAUGGUUCCGUUUCGGUACCAGAAGGUCCUGGGUGCU [salish99_SSNG3_r04_310] (Eterna round: R96, puzzle: Same State NG 3) |  |  |  | 459 nM | 748 nM | 1030 nM
